# From patent publication US20190194358A1 (ARIZONA BOARD OF REGENTS A BODY CORPORATE OF THE STATE OF …, published 2019)
# Ends that are not written are not given here.
# B1: synbody comprising TRF-26 and TRF-23 (Example 9, lysine-linked) (designed binder)
# peptide 1: AHKVVPQRQIRHAYNRYGSG
# peptide 2: FRGWAHIFFGPHVIYRGGSG
# modifications: not fully specified (bridges); also: C-termini joined to alpha or epsilon amines of branching Lys, orientation not given here, followed by C-terminal Cys, Gly or Ala, not given here which
# notes: probably the same construct family as SYN23-26
# B2: TRF101 (peptide)
# peptide: ARDLLIQKNSGQDVDHRGSC
# notes: Screened unpurified, then resynthesised and HPLC purified
# B3: TBPM023 (peptide)
# peptide: AHKVVPQRQMRHAYSRYGSC
# notes: Clone from mRNA display on a doped TRF26 library; also called TBPMO23
# B4: TRF26 P6Y+H12F double mutant (peptide)
# peptide: AHKVVYQRQIRFAYNRYGSC
# notes: also called P6Y + 1112F (so in the source)
# B5: linker-optimized BP1/BP2 DNA-linked synbody (BP1 on the template strand, BP2 at position 13 from the 3' end of the variable strand) (designed binder)
# peptide 1: GTEKGTSGWLKTGSC
# peptide 2: EGEWTEGKLSLRGSC
# modifications: not fully specified (some residues); cysteine pairing not given here; also: DNA strands hybridised
# notes: The two peptide-DNA conjugates are held together by hybridisation of the DNA strands; also called Gal80 synbody; BP1-BP2 containing synbody
# B6: TNF1 D4Y+S11K double mutant (peptide)
# peptide: FERYPLMMPWKFLQSRQGSC
# How the values were obtained:
# transferrin [1] = target: T1, transferrin (human, UniProt P02787 20-698); experiment: SPR, transferrin immobilised, Kd from kinetics
# T1 construct: also called TRF; pooled human transferrin (Sigma)
# Excerpt: Flow rates and contact times are adjusted as necessary to provide the surface concentration of target desired for the intended application, and may vary by target. In general, for evaluating whether binding occurs, it is preferable to immobilize a relatively large quantity of target, and higher flow rates and/or longer contact times may be used. For determining kinetics, it is preferable to limit the amount of target immobilized so as to minimize rebinding and avidity effects, and lower flow rates and/or contact times may be used.
# transferrin [2] = target: T1, transferrin; experiment: SPR (Biacore A-100), purified peptide at several concentrations, equilibrium
# Excerpt: A Biacore A-100 Surface Plasmon Resonance (SPR) system was used to measure the binding response of each peptide to several different target proteins immobilized on a gold surface. The A-100 has four different flow cells and within each flow cell are five addressable spots. Therefore four different proteins and a negative control reference can be used per flow cell. […] Sensorgrams are collected from each immobilized protein, so a binding profile for each analyte versus each of the protein targets is generated for each injection. Target proteins were immobilized using a biotin capture approach in which a CM5 chip was activated using standard amine coupling chemistry and Neutravidin was covalently coupled to the chip. Each biotinylated protein was injected over a single spot and the amount of protein captured was measured. In this manner four proteins were immobilized per flow cell. In this example, the same four proteins were captured in all four flow cells for this experiment.
# transferrin [3] = target: T1, transferrin; experiment: SPR (Biacore T100), transferrin immobilised
# Excerpt: (§1) Affinity plots were generated for each peptide and fit using a steady state affinity model.
# transferrin [4] = target: T1, transferrin; experiment: SPR (Biacore T100), transferrin immobilised (9758 RU), steady state affinity fit
# Excerpt: as §1
# transferrin [5] = target: T1, transferrin; experiment: reference TRF26 lead peptide
# transferrin [6] = target: T1, transferrin; experiment: affinity characterisation of Example 29 (SPR; format for the purified peptides not stated)
# albumin = experiment: SPR
# [7] = target: T2, Tumor Necrosis Factor-alpha (UniProt P01375 77-233); experiment: SPR (Biacore A100), TNF-α captured, equilibrium response over a concentration series
# T2 construct: Immobilised on pipette tips or SPR chips (amine coupling or biotin capture); also called TNF-α; TNF-alpha
# Description: (§2) Point-mutant libraries were prepared in 96-well stock plates From the stock plate, peptides were diluted to 50 μM concentration in Biacore HBS-EP buffer (GE Healthcare, Piscataway, N.J.) containing 1 mg/ml carboxymethyl-dextran (Sigma-Aldrich, St. Louis, Mo.) to reduce non-specific binding to the CM-5 SPR chip surface. TNF-αt was captured on a CM-5 chip surface at different capture levels on spots 1, 2, 4, and 5 across all four flow cells corresponding to a 40-200 RU range of predicted Rₘₐₓ binding responses. Spot 3 contained only immobilized neutravidin and served as a reference spot.
# (§3) Purified point-mutant affinities were measured on the Biacore A100 using SPR equilibrium binding response across a series of peptide concentrations on an SPR chip with TNF-α captured as described above.
# [8] = target: T2, Tumor Necrosis Factor-alpha; experiment: SPR; reference TNF1 lead peptide
# Description: as §2, §3
# [9] = target: T2, Tumor Necrosis Factor-alpha; experiment: SPR (Biacore A100), TNF-α captured, equilibrium response over a concentration series; the cell prints '93', read as 9.3 (decimal point lost)
# Description: as §2, §3
# T1 sequence (P02787 20-698 limits assumed): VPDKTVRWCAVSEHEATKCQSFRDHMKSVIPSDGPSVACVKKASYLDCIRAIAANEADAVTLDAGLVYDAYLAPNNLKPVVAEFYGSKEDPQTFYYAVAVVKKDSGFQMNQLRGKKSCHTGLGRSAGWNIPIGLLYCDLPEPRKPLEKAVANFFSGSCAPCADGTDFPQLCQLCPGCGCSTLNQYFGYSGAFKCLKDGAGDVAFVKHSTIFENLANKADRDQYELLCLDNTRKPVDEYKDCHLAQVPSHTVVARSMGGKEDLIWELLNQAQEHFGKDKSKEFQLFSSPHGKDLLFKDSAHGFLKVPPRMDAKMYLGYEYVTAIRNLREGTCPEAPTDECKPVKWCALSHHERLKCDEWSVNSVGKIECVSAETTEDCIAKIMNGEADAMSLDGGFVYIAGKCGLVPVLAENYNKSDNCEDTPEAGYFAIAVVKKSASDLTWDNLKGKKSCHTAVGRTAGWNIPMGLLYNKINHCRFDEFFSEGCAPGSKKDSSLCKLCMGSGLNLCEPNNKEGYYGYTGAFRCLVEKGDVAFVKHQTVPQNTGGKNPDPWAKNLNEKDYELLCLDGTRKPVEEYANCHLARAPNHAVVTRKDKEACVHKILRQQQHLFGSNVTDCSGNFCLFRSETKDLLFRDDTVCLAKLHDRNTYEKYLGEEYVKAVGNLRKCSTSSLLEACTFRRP
# T2 sequence (P01375 77-233 limits assumed): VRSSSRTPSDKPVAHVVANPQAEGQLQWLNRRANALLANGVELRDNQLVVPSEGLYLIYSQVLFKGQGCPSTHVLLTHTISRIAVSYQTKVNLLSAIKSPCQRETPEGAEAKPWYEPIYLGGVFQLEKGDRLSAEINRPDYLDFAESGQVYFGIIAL
binder,measurement,setting,value
B1,Kd,transferrin [1],0.15 µM
B2,Kd,transferrin [2],78.9 µM
B3,fold improvement in affinity relative to TRF26,transferrin [3],> 10 fold
same,Kd,transferrin [4],11.6 µM
B4,Kd Fold-Change Relative to Lead,transferrin [5],190 fold
same,Kd,transferrin [6],0.5 µM
B5,Kd relative to the Kd for gal80 (fold),albumin,> 1000 fold
B6,Observed Binding ΔG,[7],-6.67 kcal/mol
same,Kd Fold-Change Relative to Lead,[8],17 fold
same,Kd,[9],9.3 µM
